The text below walks through data of patent US20230203482A1, “Methods of Rescuing Stop Codons via Genetic Reassignment with ACE-tRNA” (THE WISTAR INSTITUTE OF ANATOMY AND BIOLOGY, priority 2017, published 2023).

Sequences and labels used below:
B1: TS-38: t-stem variant of Trpchr17.trna39, SEQ ID NO: 3 (nucleic acid)
chain: GGCCTCGTGGCGCAACGGTAGCGCGTCTGACTTCAGATCAGAAGGTTCCGGGTTCAAATCCCGGCGGGGTCA
modifications: expressed or natural sequence
B2: ArgTGAchr16.trna3: ACE-tRNA Arg, TGA suppressor, SEQ ID NO: 10 (nucleic acid)
chain: CGTCGCCCCGGTGGCCTAATGGATAAGGCATTGGCCTTCAAAGCCAGGGATTGTGGGTTCGAGTCCCACCCGGGGTA
modifications: expressed or natural sequence
B3: ArgTGAchr1.trna10/nointron: ACE-tRNA Arg, TGA suppressor, SEQ ID NO: 6 (nucleic acid)
chain: CGTCGGCTCCGTGGCGCAATGGATAGCGCATTGGACTTCAAATTCAAAGGTTCCGGGTTCGAGTCCCGGCGGAGTCG
modifications: expressed or natural sequence
B4: ArgTGAchr17.trna3/nointron: ACE-tRNA Arg, TGA suppressor, SEQ ID NO: 8 (nucleic acid)
chain: CGTCGGCTCTGTGGCGCAATGGATAGCGCATTGGACTTCAAATTCAAAGGTTGTGGGTTCGAATCCCACCAGAGTCG
modifications: expressed or natural sequence
B5: ArgTGAchr1.trna10/withintron: ACE-tRNA Arg, TGA suppressor, SEQ ID NO: 11 (nucleic acid)
chain: CGTCGGCTCCGTGGCGCAATGGATAGCGCATTGGACTTCAAGAGGCTGAAGGCATTCAAAGGTTCCGGGTTCGAGTCCCGGCGGAGTCG
modifications: expressed or natural sequence
B6: ArgTGAchr9.trna6/withintron: ACE-tRNA Arg, TGA suppressor, SEQ ID NO: 9 (nucleic acid)
chain: CGTCGGCTCTGTGGCGCAATGGATAGCGCATTGGACTTCAAGCTGAGCCTAGTGTGGTCATTCAAAGGTTGTGGGTTCGAGTCCCACCAGAGTCG
modifications: expressed or natural sequence
B7: ArgTGAchr17.trna3/withinron: ACE-tRNA Arg, TGA suppressor, SEQ ID NO: 12 (nucleic acid)
chain: CGTCGGCTCTGTGGCGCAATGGATAGCGCATTGGACTTCAAGTGACGAATAGAGCAATTCAAAGGTTGTGGGTTCGAATCCCACCAGAGTCG
modifications: expressed or natural sequence
B8: TrpTGAchr17.trna10: ACE-tRNA Trp, TGA suppressor, SEQ ID NO: 49 (nucleic acid)
chain: GACCTCGTGGCGCAATGGTAGCGCGTCTGACTTCAGATCAGAAGGTTGCGTGTTCAAGTCACGTCGGGGTCA
modifications: expressed or natural sequence
B9: GlyTGAchr17.trna9: ACE-tRNA Gly, TGA suppressor, SEQ ID NO: 55 (nucleic acid)
chain: GCGTTGGTGGTATAGTGGTAAGCATAGCTGCCTTCAAAGCAGTTGACCCGGGTTCGATTCCCGGCCAACGCA
modifications: expressed or natural sequence
B10: GlyTGAchr1.trna107: ACE-tRNA Gly, TGA suppressor, SEQ ID NO: 54 (nucleic acid)
chain: GCGTTGGTGGTATAGTGGTGAGCATAGCTGCCTTCAAAGCAGTTGACCCGGGTTCGATTCCCGGCCAACGCA
modifications: expressed or natural sequence
B11: GlnTAGchr6.trna63: ACE-tRNA Gln, TAG suppressor, SEQ ID NO: 18 (nucleic acid)
chain: CGTCGGTCCCATGGTGTAATGGTTAGCACTCTGGACTCTAAATCCAGCAATCCGAGTTCGAATCTCGGTGGGACCT
modifications: expressed or natural sequence
B12: GlnTAGchr17.trna14: ACE-tRNA Gln, TAG suppressor, SEQ ID NO: 19 (nucleic acid)
chain: CGTCGGTCCCATGGTGTAATGGTTAGCACTCTGGACTCTAAATCCAGCGATCCGAGTTCAAATCTCGGTGGGACCT
modifications: expressed or natural sequence
B13: GlnTAGchr6.trna132: ACE-tRNA Gln, TAG suppressor, SEQ ID NO: 20 (nucleic acid)
chain: CGTCGGCCCCATGGTGTAATGGTCAGCACTCTGGACTCTAAATCCAGCGATCCGAGTTCAAATCTCGGTGGGACCC
modifications: expressed or natural sequence
B14: GlnTAGchr6.trna175: ACE-tRNA Gln, TAG suppressor, SEQ ID NO: 17 (nucleic acid)
chain: CGTCGGCCCCATGGTGTAATGGTTAGCACTCTGGACTCTAAATCCAGCGATCCGAGTTCAAATCTCGGTGGGACCT
modifications: expressed or natural sequence
B15: GlnTAGchr1.trna17: ACE-tRNA Gln, TAG suppressor, SEQ ID NO: 16 (nucleic acid)
chain: CGTCGGTTCCATGGTGTAATGGTGAGCACTCTGGACTCTAAATCCAGCGATCCGAGTTCGAGTCTCGGTGGAACCT
modifications: expressed or natural sequence

The test system of one series is NLuc-UGA PTC. The series is described as follows: NanoLuc nonsense reporter screen (all-in-one HTC plasmid), TGA/UGA PTC, HEK293 cells. The note with it: HEK cells, luciferase 24 hours post-transfection. The class given is cell-based, human. From the text:
Several different nonsense mutations cause CF, thus underlying roughly 10% of all CF disease. FIG. 7. These cases are concentrated into […] specific genetic lesions: E60X, R75X, G542X, R553X, Q890X, Y1092X, R1158X, R1162X and W1282X. A screen was developed to screen existing human tRNA sequences for modification and tolerance to anti-codon editing. To this end, roughly 144 ACE-tRNAs were candidates to test for those that could be used to promote the repair of the disease causative nonsense codon and the expression of the full-length protein. Specifically, using the scheme described in FIG. 11, tRNA libraries were generated to identify novel tRNA sequences that encode for ACE tRNA with the ability to repair the top CF causative nonsense mutations. Specifically, 10 ng of annealed oligos encoding the ACE-tRNAs were combined with 50 ng of NanoLuc reporter plasmid, 1 μl 10×CutSmart Buffer (NEB), 1 μl T4 ligase (NEB), 10 mM ATP and 1 μl BbsI (NEB) and cycled in a thermocycler as described in FIG. 11. 1 μl of the reaction was transformed into competent E. coli and the transformants were plated on ampicillin agar plates. One transformant was picked per plate was picked, grown in 1 ml of LB under ampicillin selection, miniprepped and sequence verified.
Screening studies were first performed to identify the best ACE-tRNA Candidates from tryptophan and glycine. 125 ng of sequence verified miniprep cDNA of NanoLuc reporter plasmid with ACE-tRNA was transfected into HEK cells using calcium phosphate. HEK cells were plated in 96 well plates at 4×10^4 the day prior. 24 hours after transfection the media was replaced with 20 μl of PBS and 15 μl of NanoGlo reagent (Promega) was added. Plates were read on a SpectraMax i3 (Molecular Devices). Data are of replicates of 3 or greater. FIG. 8.
FIG. 10. An additional modification of the tRNA was made to further enable their function for the purpose of suppression of nonsense codons and the promotion of protein expression. […] To this end, single and double mutations were directly engineered into the t-stem loop of tRNA Trpchr17.trna39—an ACE-tRNA identified with activity for the rescue of tryptophan TGA nonsense codons. Thirty-eight tRNA t-stem variants were thus generated and screened in HEK cells transiently transfected with the nonsense rescue reporter construct shown in FIG. 4. […] This is a generalizable modification, that is, new tRNA sequences identified, by example 1 and 2, can be made better (for their ability to rescue nonsense codons) through further rationale modifications. Such approaches aid in the therapeutic utility of ACE-tRNA directed to tissue types with low abundance target RNA or where tRNA delivery may be limiting.
In order to enable the identification of the nucleotide composition and functional ability to suppress nonsense codons by new types of tRNA, an All-In-One Plasmid With A One Pot Cloning Reaction was invented for High Throughput Cloning FIG. 11. This approach enables the facile investigation of ACE-tRNA activity via luciferase activity in a standard 96 well format. Briefly, synthetic nucleotide sequences encoding for tRNA are ligated into the NanoLuc Reporter plasmid, with an example of the TGA nonsense reporter plasmid variant shown in FIG. 11. […] and TAG (amber) stop codon rescue vectors have been successfully designed and implemented in FIGS. 16-19. The benefits are the approach is that DNA oligos encoding for tRNA libraries can be ligated in the NanoLuc reporter plasmid with the presence of the restriction enzyme and ligase with the reaction pushed to nearly 100% incorporation of tRNA insert (FIG. 11)-thus the ‘one-pot’ designation. The reaction is transformed into E. coli, with the resultant cDNA purified by standard methods. […]
B1: the “enhancement of the suppression ability of Trpchr17.trna39 by t-stem mutation” value is given as “roughly 250%”.

The series is the same for the next values; noted with them: Table 1, Arg TGA.
Consider “ArgTGAchr7.trna5: ACE-tRNA Arg, TGA suppressor, SEQ ID NO: 7”, for which the Ranking result is “#4”.

For “ArgTGAchr9.trna6/nointron: ACE-tRNA Arg, TGA suppressor, SEQ ID NO: 4”, the Ranking result is “#1”.

For “ArgTGAchr17.trna19: ACE-tRNA Arg, TGA suppressor, SEQ ID NO: 5”, the Ranking result was “#2”. On the same count and under the same terms, the entry for B2 is “#5”; for B3 it is “#3”.

Take B4: the Ranking result is reported as “#4”. B5: the Ranking entry was “#6”. Consider B6, for which the Ranking result is given as “#5”. Consider B7, for which the Ranking entry is recorded as “#7”.

The series is the same for the next values; noted with them: Table 7, Trp TGA.
On to “TrpTGAchr6.trna171: ACE-tRNA Trp, TGA suppressor, SEQ ID NO: 50”, for which the Ranking entry is listed as “#3”. For the molecule B8, the Ranking entry is “#2”.

Still in this series, the particulars now being: Table 8, Gly TGA.
B9: the Ranking result is listed as “#3”.

As for B10, the Ranking result is reported as “#2”.

The subject of a further series is NLuc-UAG PTC. The series is described as follows: NanoLuc nonsense reporter screen (all-in-one HTC plasmid), TAG/UAG PTC, HEK293 cells. The class given is cell-based, human. The note with it: Table 2, Gln TAG. From the text: In order to enable the identification of the nucleotide composition and functional ability to suppress nonsense codons by new types of tRNA, an All-In-One Plasmid With A One Pot Cloning Reaction was invented for High Throughput Cloning FIG. 11. This approach enables the facile investigation of ACE-tRNA activity via luciferase activity in a standard 96 well format. Briefly, synthetic nucleotide sequences encoding for tRNA are ligated into the NanoLuc Reporter plasmid, with an example of the TGA nonsense reporter plasmid variant shown in FIG. 11. […] and TAG (amber) stop codon rescue vectors have been successfully designed and implemented in FIGS. 16-19. The benefits are the approach is that DNA oligos encoding for tRNA libraries can be ligated in the NanoLuc reporter plasmid with the presence of the restriction enzyme and ligase with the reaction pushed to nearly 100% incorporation of tRNA insert (FIG. 11)-thus the ‘one-pot’ designation. The reaction is transformed into E. coli, with the resultant cDNA purified by standard methods. Another benefit of the invented method is that the tRNA and reporter gen are within the single expression cassette, therefore lowering biological variability and improving data quality obtaining in resulting screens of tRNA suppression activity. The purified cDNA plasmids are then screened in high-throughput 96 well format for their ability to repair nonsense codons by inferred luciferase activity. The approach is suitable for the high-throughput screening of hundreds to thousands of tRNA for novel therapeutic activity.
The rationale of this study is rooted in the observation that there are multiple tRNA genes with unique sequences (isodecoders) for a given cognate amino acid (isoacceptors), leading to >400 tRNAs annotated in the human genome (http:lowelab.ucsc.edu/GtRNAdb/)^28, 29. First, tRNA genes were examined to identify individual ACE-tRNAs that retain suppression efficacy of PTCs in mammalian cells. In order to maximize sequence coverage, an all-in-one cDNA plasmid was generated that supports both high-throughput cloning (HTC) of ACE-tRNAs and quantitative measurement of PTC suppression using luminescence following delivery to mammalian cells, FIG. 21B. ACE-tRNA sequences were cloned as DNA oligos into the HTC plasmid using Golden Gate cloning^30 paired with ccdB negative selection^31. This strategy produced ˜100% cloning efficiency. ACE-tRNA suppression efficiency was read out from a split NanoLuc luciferase (NLuc) NanoBiT platform whereby the PTC of interest (UGA, UAA, or UAG) was introduced in-frame at the junction between the large bit and small bit domains, FIG. 21B^32, using a 96-well format and normalized to background obtained in NLuc-PTC expressing cells. Twenty-one glycine ACE-tRNAs were first evaluated for suppression of the UGA PTC, FIG. 22, top left, column 1 (violet). […] Given the high sequence conservation among the Gly-tRNAs screened for anti-codon tolerance (FIG. 27), it would be difficult to predict de novo which tRNA would be most amenable to anticodon-editing.
The parent plasmid used was pcDNA3.1(+). The cDNA encoding pNLuc was Gibson Assembled (New England Biolabs, USA) into restriction sites HindIII and XhoI. A glycine (codon gga), tryptophan ([…]), amber (tag), opal (tga) and ochre (taa), were added to amino acid position 160 during cDNA per. The pcDNA3.1(+) polyA sequence was replaced for one with no BbsI restriction sites using per based Gibson Assembly. The high throughput ACE-tRNA Golden Gate cloning site was generated by first inserting the 5′ leader sequence of the human tRNA^Tyr gene (bold) with a T7 promoter sequence upstream (italics)
tRNA gene sequences were obtained from the tRNA database tRNAscan-SE (http://gtrnadb.ucsc.edu/index.html; PMID: 26673694). […]
As to B11, the Ranking result is reported as “#3”. The same measure, in the same setting: the entry for B12 is “#4”; for B13 it is “#5”; for B14 it is “#2”. Take B15: the Ranking entry was “#1”.

Staying with this series, now noted: Table 4, Trp TAG.
Turning to “TrpTAGchr6.trna171: ACE-tRNA Trp, TAG suppressor, SEQ ID NO: 34”, the Ranking entry is given as “#2”. On the same count and under the same terms, the entry for “TrpTAGchr17.trna39: ACE-tRNA Trp, TAG suppressor, SEQ ID NO: 35” is “#3”.
